Laboratory results from publication PMC8509813, “Effect of Structural Changes Induced by Deletion of ^54[sequence]^61 Sequence in αB-crystallin on Chaperone Function and Anti-Apoptotic Activity” (International Journal of Molecular Sciences, 2021).

Legend:
luciferase = luciferase (UniProt P08659 1-550 = luciferase); experiment: cell-based or functional assay
lysozyme = lysozyme (UniProt P00698 19-147); experiment: cell-based or functional assay
[1] = target: the molecule itself; experiment: SEC-MALS; peak 2 (crystallin) of the mixtures with citrate synthase at 0 min, before incubation; TSK G5000PWXL column, MALS and quasi-elastic light scattering; homo-oligomer of ~20 kDa subunits

Chain of luciferase (P08659 whole entry): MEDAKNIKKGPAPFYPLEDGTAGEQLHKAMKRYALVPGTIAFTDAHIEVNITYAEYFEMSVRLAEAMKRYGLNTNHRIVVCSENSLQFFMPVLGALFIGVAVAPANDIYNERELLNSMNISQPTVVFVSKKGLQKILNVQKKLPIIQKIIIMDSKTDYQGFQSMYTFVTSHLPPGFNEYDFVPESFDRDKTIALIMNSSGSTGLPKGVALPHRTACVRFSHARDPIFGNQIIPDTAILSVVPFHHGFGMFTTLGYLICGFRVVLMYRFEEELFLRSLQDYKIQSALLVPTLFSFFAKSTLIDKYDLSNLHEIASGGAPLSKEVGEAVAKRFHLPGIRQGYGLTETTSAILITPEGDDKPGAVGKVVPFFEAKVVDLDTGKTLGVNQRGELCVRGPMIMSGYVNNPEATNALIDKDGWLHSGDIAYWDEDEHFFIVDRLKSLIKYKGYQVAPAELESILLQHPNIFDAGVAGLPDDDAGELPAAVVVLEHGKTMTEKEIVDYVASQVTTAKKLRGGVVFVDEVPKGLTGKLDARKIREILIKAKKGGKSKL
Chain of lysozyme (P00698 19-147): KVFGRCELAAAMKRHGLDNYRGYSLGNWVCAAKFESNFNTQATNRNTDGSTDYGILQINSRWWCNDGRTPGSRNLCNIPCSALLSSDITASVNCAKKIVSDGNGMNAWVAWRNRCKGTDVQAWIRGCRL

B1: wild-type αB-crystallin (natural protein, human, UniProt P02511 1-175, looked up)
chain: MDIAIHHPWIRRPFFPFHSPSRLFDQFFGEHLLESDLFPTSTSLSPFYLRPPSFLRAPSWFDTGLSEMRLEKDRFSVNLDVKHFSPEELKVKVLGDVIEVHGKHEERQDEHGFISREFHRKYRIPADVDPLTITSSLSSDGVLTVNGPRKQVSGPERTIPITREEKPAVTAAPKK
notes: αB-crystallin, human, wild type; subunit of ~20 kDa that forms a homo-oligomer; also called αB-wt; WT protein; source: E. coli BL21(DE3)pLysS, purified (ammonium sulfate precipitation, gel filtration twice)
EC50: chaperone concentration that suppresses the aggregation of 1 µM luciferase (PBS, 37 °C, light scattering at 360 nm) by 50% (luciferase): 48 µM
EC50: chaperone concentration that suppresses the aggregation of 10 µM lysozyme (2 mM DTT, PBS, 37 °C, light scattering at 360 nm) by 50% (lysozyme): 2.8 µM
binding result [1]: binds

B2: αB-crystallin with residues 54–61 deleted (natural protein, human, UniProt P02511 1-175, looked up)
chain: MDIAIHHPWIRRPFFPFHSPSRLFDQFFGEHLLESDLFPTSTSLSPFYLRPPSDTGLSEMRLEKDRFSVNLDVKHFSPEELKVKVLGDVIEVHGKHEERQDEHGFISREFHRKYRIPADVDPLTITSSLSSDGVLTVNGPRKQVSGPERTIPITREEKPAVTAAPKK
notes: No tag is mentioned; 306 kDa by MALS; also called αBΔ54–61; deletion mutant; source: E. coli BL21(DE3)pLysS, purified (ammonium sulfate precipitation, gel filtration twice)
EC50: chaperone concentration that suppresses the aggregation of 1 µM luciferase (PBS, 37 °C, light scattering at 360 nm) by 50% (luciferase): 9 µM
EC50: chaperone concentration that suppresses the aggregation of 10 µM lysozyme (2 mM DTT, PBS, 37 °C, light scattering at 360 nm) by 50% (lysozyme): 1.8 µM
binding result [1]: binds
